Source: IntAct's records for PubMed 23454188

B1: GTPase IMAP family member 7 (Homo sapiens), Q8NHV1 (parent)
chain: MAESEDRSLRIVLVGKTGSGKSATANTILGEEIFDSRIAAQAVTKNCQKASREWQGRDLLVVDTPGLFDTKESLDTTCKEISRCIISSCPGPHAIVLVLLLGRYTEEEQKTVALIKAVFGKSAMKHMVILFTRKEELEGQSFHDFIADADVGLKSIVKECGNRCCAFSNSKKTSKAEKESQVQELVELIEKMVQCNEGAYFSDDIYKDTEERLKQREEVLRKIYTDQLNEEIKLVEEDKHKSEEEKEKEIKLLKLKYDEKIKNIREEAERNIFKDVFNRIWKMLSEIWHRFLSKCKFYSS

Variants of: B1
Details: with gima2_human GIMAP2, Q9UG22
gima2_human GIMAP2, Q9UG22, sequence (Q9UG22 whole entry): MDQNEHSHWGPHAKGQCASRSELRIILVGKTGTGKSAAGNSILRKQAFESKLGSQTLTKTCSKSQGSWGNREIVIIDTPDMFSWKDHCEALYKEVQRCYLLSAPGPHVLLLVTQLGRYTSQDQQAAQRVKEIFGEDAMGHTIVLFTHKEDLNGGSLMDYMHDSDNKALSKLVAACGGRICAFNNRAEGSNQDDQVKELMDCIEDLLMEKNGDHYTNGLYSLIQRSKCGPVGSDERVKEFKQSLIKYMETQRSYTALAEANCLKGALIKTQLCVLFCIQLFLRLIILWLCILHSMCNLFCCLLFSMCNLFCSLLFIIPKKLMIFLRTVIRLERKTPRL

Variant	effect of a mutation on the interaction
E136W	decreasing interaction strength
R103D	disrupting interaction strength
